Our source for the inhibition and specific activity values is patent US20020160482A1, “Methods for protein purification” (priority 2001, published 2002).

For series [1], the target named is T1, purified SSAO protein (recombinant human SSAO) (Homo sapiens, UniProt Q16853).
T1 construct: residues 29-763 of the human SSAO protein cloned from human aorta cDNA; mutated S. japonicum GST (Cys85/138/178 to Ser) with SQSQ spacer and 3C protease site EALFQG (N, cleaved yes); murine IgG1 heavy chain signal peptide (mutated), followed by an 18 amino acid spacer (N, cleaved yes); made in house; host or cells: HEK293 cells stably transfected with pMB887, protein secreted into the medium
T1 sequence (Q16853 29-763): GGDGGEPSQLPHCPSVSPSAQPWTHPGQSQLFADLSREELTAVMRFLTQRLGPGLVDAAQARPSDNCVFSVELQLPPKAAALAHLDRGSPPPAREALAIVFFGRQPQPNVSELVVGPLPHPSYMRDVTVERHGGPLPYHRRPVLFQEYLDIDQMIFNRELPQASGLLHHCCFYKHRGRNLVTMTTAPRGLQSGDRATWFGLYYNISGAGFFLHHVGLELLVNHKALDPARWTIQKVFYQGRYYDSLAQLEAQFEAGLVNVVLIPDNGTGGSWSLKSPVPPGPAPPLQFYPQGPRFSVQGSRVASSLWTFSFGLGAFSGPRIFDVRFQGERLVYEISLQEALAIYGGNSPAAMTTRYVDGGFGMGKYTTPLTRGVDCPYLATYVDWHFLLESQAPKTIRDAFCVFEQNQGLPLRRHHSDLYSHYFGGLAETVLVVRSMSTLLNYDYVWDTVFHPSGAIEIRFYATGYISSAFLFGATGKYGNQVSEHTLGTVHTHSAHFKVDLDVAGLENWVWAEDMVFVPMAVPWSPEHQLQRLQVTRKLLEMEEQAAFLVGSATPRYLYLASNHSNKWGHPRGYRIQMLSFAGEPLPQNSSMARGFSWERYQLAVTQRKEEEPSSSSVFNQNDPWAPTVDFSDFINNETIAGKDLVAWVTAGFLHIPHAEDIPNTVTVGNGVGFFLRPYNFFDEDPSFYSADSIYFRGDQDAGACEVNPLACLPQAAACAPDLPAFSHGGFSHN
The experiment in a line: Semicarbazide inhibition of benzylamine oxidase activity (spectrophotometric amine oxidase assay). It counts as biochemical. The conditions noted are these: in the presence of 0.1 mM semicarbazide, read-out: benzylamine oxidase activity inhibited. The procedure:
A spectrophotometric assay for monoamine oxidases described by Holt and coworkers (Holt et al., 1997) was used to determine amine oxidase activity in samples from the different purification steps. The assay was performed in 96-well microtiter plates incubated at 37° C. in a SPECTRAmax 250 microplate spectrophotometer (Molecular Devices, Sunnyvale, Calif.). The reagent mix containing 1 mM vanillic acid (Sigma, St. Louis, Mo.), 500 μM 4-aminoantipyrine (Sigma), and 4U ml^−1 peroxidase (type VI from horseradish, Sigma) in 0.2 M potassium phosphate buffer (pH 7.6) was prepared on the same day assays were performed and kept at 5° C. until used. Reactions were started by mixing 50 μl sample, 50 μl reagent mix and 200 μl potassium phosphate buffer with or without 750 μM benzylamine hydrochloride (Sigma) and were performed in triplicate. In order to obtain blank reference values, wells were analyzed with buffer added in place of sample. Absorbance changes were followed at 490 nm for 10-40 minutes. Standard curves were prepared with dilutions of a stock solution of H2O2 in potassium phosphate buffer ranging from 10 nmol/well to 120 nmol/well. When inhibition experiments were carried out, the samples were incubated in 300 μM semicarbazide at 37° C. for 30 minutes, before addition of the benzylamine solution. […]

Series [2] can be described thus: Spectrophotometric amine oxidase assay: specific benzylamine oxidase activity of purified proteins. It counts as biochemical, human. On the procedure:
A spectrophotometric assay for monoamine oxidases described by Holt and coworkers (Holt et al., 1997) was used to determine amine oxidase activity in samples from the different purification steps. The assay was performed in 96-well microtiter plates incubated at 37° C. in a SPECTRAmax 250 microplate spectrophotometer (Molecular Devices, Sunnyvale, Calif.). The reagent mix containing 1 mM vanillic acid (Sigma, St. Louis, Mo.), 500 μM 4-aminoantipyrine (Sigma), and 4U ml^−1 peroxidase (type VI from horseradish, Sigma) in 0.2 M potassium phosphate buffer (pH 7.6) was prepared on the same day assays were performed and kept at 5° C. until used. Reactions were started by mixing 50 μl sample, 50 μl reagent mix and 200 μl potassium phosphate buffer with or without 750 μM benzylamine hydrochloride (Sigma) and were performed in triplicate. In order to obtain blank reference values, wells were analyzed with buffer added in place of sample. Absorbance changes were followed at 490 nm for 10-40 minutes. Standard curves were prepared with dilutions of a stock solution of H2O2 in potassium phosphate buffer ranging from 10 nmol/well to 120 nmol/well. When inhibition experiments were carried out, the samples were incubated in 300 μM semicarbazide at 37° C. for 30 minutes, before addition of the benzylamine solution.

Some results are limits rather than exact numbers.

In the case of `NNC(N)=O` [semicarbazide], the inhibition at 100 µM in series [1] was above 95%.

B1: SSAO protein: purified soluble recombinant human SSAO (residues 29-763) after removal of the GST fusion partner (protein, listed as Homo sapiens)
chain: GGDGGEPSQLPHCPSVSPSAQPWTHPGQSQLFADLSREELTAVMRFLTQRLGPGLVDAAQARPSDNCVFSVELQLPPKAAALAHLDRGSPPPAREALAIVFFGRQPQPNVSELVVGPLPHPSYMRDVTVERHGGPLPYHRRPVLFQEYLDIDQMIFNRELPQASGLLHHCCFYKHRGRNLVTMTTAPRGLQSGDRATWFGLYYNISGAGFFLHHVGLELLVNHKALDPARWTIQKVFYQGRYYDSLAQLEAQFEAGLVNVVLIPDNGTGGSWSLKSPVPPGPAPPLQFYPQGPRFSVQGSRVASSLWTFSFGLGAFSGPRIFDVRFQGERLVYEISLQEALAIYGGNSPAAMTTRYVDGGFGMGKYTTPLTRGVDCPYLATYVDWHFLLESQAPKTIRDAFCVFEQNQGLPLRRHHSDLYSHYFGGLAETVLVVRSMSTLLNYDYVWDTVFHPSGAIEIRFYATGYISSAFLFGATGKYGNQVSEHTLGTVHTHSAHFKVDLDVAGLENWVWAEDMVFVPMAVPWSPEHQLQRLQVTRKLLEMEEQAAFLVGSATPRYLYLASNHSNKWGHPRGYRIQMLSFAGEPLPQNSSMARGFSWERYQLAVTQRKEEEPSSSSVFNQNDPWAPTVDFSDFINNETIAGKDLVAWVTAGFLHIPHAEDIPNTVTVGNGVGFFLRPYNFFDEDPSFYSADSIYFRGDQDAGACEVNPLACLPQAAACAPDLPAFSHGGFSHN
For B1, the specific activity amounted to 522 nmol/min/mg in series [2] (after cleavage, flow-through of second glutathione-Sepharose step (cleavage buffer with DTT)); 809 nmol/min/mg in series [2] (after removal of GST fusion partner and diafiltration (final product)); 809 nmol/min/mg in series [2] (per purification step, nmol of H2O2 produced per minute using 0.5 mM benzylamine as substrate, listed as Diafiltrate); 522 nmol/min/mg in series [2] (per purification step, nmol of H2O2 produced per minute using 0.5 mM benzylamine as substrate, listed as GSH-affinity step-2 (flow-through)).
